In PMC9845754 one finds stoichiometry N (mol ICR2-His6 per mole of tubulin) data, which are given here for 1 substance.

This test has as its target taxol-stabilized microtubules polymerized from porcine brain tubulin (porcine) (UniProt P02550). The experiment in a line: co-sedimentation; 0, 1, 2, 4, 6, 8 or 10 µM ICR2-His6 added to taxol-stabilized microtubules (5 µM tubulin) in PEMT (100 mM PIPES, 1 mM EGTA, 1 mM MgCl2, 1 mM GTP, 20 µM taxol, pH 6.9); 100,000 g, 25°C, 15 min; SDS-PAGE, Coomassie, densitometry.

In turn, “ICR2-His6 (from UniProt Q9ZQC5 56-583) (natural protein)” registered a stoichiometry N (mol ICR2-His6 per mole of tubulin) of 0.85.
